PMC2394828 (Acta Crystallographica Section D: Biological Crystallography, 2007)
“And” between values parts separate entries of the source, which are not always exact repeats. Equal entries are not always repeated.

Key:
crystal structure [1] = molecular target: the molecule itself; test: crystal structure
AUC + SEC = molecular target: the molecule itself; test: AUC + SEC
crystal structure [2] = molecular target: the molecule itself; test: crystal structure; remark: listed apart in the source

Protein | stoichiometry N (crystal structure [1]) | stoichiometry N (AUC + SEC) | stoichiometry N (crystal structure [2])
thioredoxin peroxidase B from human erythrocytes (enzyme, UniProt P32119 1-198, looked up) MASGNARIGKPAPDFKATAVVDGAFKEVKLSDYKGKYVVLFFYPLDFTFVCPTEIIAFSNRAEDFRKLGCEVLGVSVDSQFTHLAWINTPRKEGGLGPLNIPLLADVTRRLSEDYGVLKTDEGIAYRGLFIIDGKGVLRQITVNDLPVGRSVDEALRLVQAFQYTDEHGEVCPAGWKPGSDTIKPNVDDSKEYFSKHN | 10 | 8 and 12 | 
anti-TRAP from Bacillus licheniformis (natural protein, UniProt Q65NU7 1-53, looked up) MVIATDDLETTCPNCNGSGREEPEPCPKCSGKGVILTAQGSTLLHFIKKHLNE |  |  | 12
